T1: EsCas13d, nuclease-dead (Eubacterium siraeum, UniProt B0MS50, R295A;H300A;R849A;H854A)
T1 sequence: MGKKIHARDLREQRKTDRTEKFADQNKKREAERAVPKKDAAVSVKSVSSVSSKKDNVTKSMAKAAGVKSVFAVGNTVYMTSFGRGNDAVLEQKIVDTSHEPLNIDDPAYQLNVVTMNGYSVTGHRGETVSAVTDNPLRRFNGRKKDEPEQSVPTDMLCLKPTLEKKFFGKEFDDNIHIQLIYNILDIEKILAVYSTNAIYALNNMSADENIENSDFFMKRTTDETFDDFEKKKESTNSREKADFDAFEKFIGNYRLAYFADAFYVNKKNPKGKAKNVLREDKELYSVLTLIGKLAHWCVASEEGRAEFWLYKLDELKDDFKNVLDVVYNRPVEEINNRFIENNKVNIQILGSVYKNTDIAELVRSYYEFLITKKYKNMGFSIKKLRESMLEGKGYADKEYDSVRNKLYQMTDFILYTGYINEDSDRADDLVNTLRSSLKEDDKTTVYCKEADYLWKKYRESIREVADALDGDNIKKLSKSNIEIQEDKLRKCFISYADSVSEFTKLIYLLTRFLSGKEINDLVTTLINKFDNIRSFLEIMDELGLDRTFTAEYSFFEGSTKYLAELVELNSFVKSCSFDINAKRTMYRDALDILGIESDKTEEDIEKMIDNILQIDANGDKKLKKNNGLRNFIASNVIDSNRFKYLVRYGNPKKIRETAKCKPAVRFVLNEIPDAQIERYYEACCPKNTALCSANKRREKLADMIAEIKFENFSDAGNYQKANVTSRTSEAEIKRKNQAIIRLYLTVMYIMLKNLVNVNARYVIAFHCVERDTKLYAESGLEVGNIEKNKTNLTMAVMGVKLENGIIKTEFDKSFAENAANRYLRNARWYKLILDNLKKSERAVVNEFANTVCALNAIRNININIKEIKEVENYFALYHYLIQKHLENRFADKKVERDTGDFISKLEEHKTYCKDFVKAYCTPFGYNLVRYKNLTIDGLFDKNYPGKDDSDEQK


Biological target: T1, EsCas13d, nuclease-dead
Assay: crRNA (strand 1, pre-loaded); Mg2+; 40 mM Tris-HCl pH 7.5, 150 mM NaCl, 6 mM MgCl2, 1 mM DTT, 0.1% Tween-20, 0.2 mg/ml BSA; 25 C; 10 min per concentration, then washed
Details: tags: His6-TwinStrep-SUMO cleaved; N-terminal SNAP kept (SNAP-Surface 488); label: 3' end held by stalled T7 RNA polymerase

Binder | Kd [nM]
target 1 MT 5'PFS UAG 3'PFS UAC (mixed) RNA 1: CACCCGUGCAAAAAUGCAGGGGUCUAAAACUGAGCGGAUAACCUCUCUAUGG RNA 2: GGGAAUGGAUCCACAUCUACGAAUUCUAGCCAUAGAGAGGUUAUCCGCUCAUACAGAUCGGAAGAGCACACGU | 16.8 ± 2.05
target 1 MT 5'PFS UAG 3'PFS UAU (mixed) RNA 1: CACCCGUGCAAAAAUGCAGGGGUCUAAAACUGAGCGGAUAACCUCUCUAUGG RNA 2: GGGAAUGGAUCCACAUCUACGAAUUCUAGCCAUAGAGAGGUUAUCCGCUCAUAUAGAUCGGAAGAGCACACGU | 45 ± 9
target 1 MT 5'PFS UGA 3'PFS CCU (mixed) RNA 1: CACCCGUGCAAAAAUGCAGGGGUCUAAAACUGAGCGGAUAACCUCUCUAUGG RNA 2: GGGAAUGGAUCCACAUCUACGAAUUCUGACCAUAGAGAGGUUAUCCGCUCACCUAGAUCGGAAGAGCACACGU | 36 ± 15
target 1 MT 5'PFS GGC 3'PFS UCC (mixed) RNA 1: CACCCGUGCAAAAAUGCAGGGGUCUAAAACUGAGCGGAUAACCUCUCUAUGG RNA 2: GGGAAUGGAUCCACAUCUACGAAUUCGGCCCAUAGAGAGGUUAUCCGCUCAUCCAGAUCGGAAGAGCACACGU | 17.8 ± 2.5
target 1 MT 5'PFS GUU 3'PFS UUC (mixed) RNA 1: CACCCGUGCAAAAAUGCAGGGGUCUAAAACUGAGCGGAUAACCUCUCUAUGG RNA 2: GGGAAUGGAUCCACAUCUACGAAUUCGUUCCAUAGAGAGGUUAUCCGCUCAUUCAGAUCGGAAGAGCACACGU | 10.6 ± 1.45
target 1 MT 5'PFS UUG 3'PFS CGA (mixed) RNA 1: CACCCGUGCAAAAAUGCAGGGGUCUAAAACUGAGCGGAUAACCUCUCUAUGG RNA 2: GGGAAUGGAUCCACAUCUACGAAUUCUUGCCAUAGAGAGGUUAUCCGCUCACGAAGAUCGGAAGAGCACACGU | 47.5 ± 23.5
target 1 MT 5'PFS UUG 3'PFS CGG (mixed) RNA 1: CACCCGUGCAAAAAUGCAGGGGUCUAAAACUGAGCGGAUAACCUCUCUAUGG RNA 2: GGGAAUGGAUCCACAUCUACGAAUUCUUGCCAUAGAGAGGUUAUCCGCUCACGGAGAUCGGAAGAGCACACGU | ~97
target 1 MT 5'PFS GGC 3'PFS UCU (mixed) RNA 1: CACCCGUGCAAAAAUGCAGGGGUCUAAAACUGAGCGGAUAACCUCUCUAUGG RNA 2: GGGAAUGGAUCCACAUCUACGAAUUCGGCCCAUAGAGAGGUUAUCCGCUCAUCUAGAUCGGAAGAGCACACGU | 10 ± 1.2
target 1 MT 5'PFS CUU 3'PFS UAA (mixed) RNA 1: CACCCGUGCAAAAAUGCAGGGGUCUAAAACUGAGCGGAUAACCUCUCUAUGG RNA 2: GGGAAUGGAUCCACAUCUACGAAUUCCUUCCAUAGAGAGGUUAUCCGCUCAUAAAGAUCGGAAGAGCACACGU | 35 ± 11.5
target 1 MT 5'PFS GGC 3'PFS UCA (mixed) RNA 1: CACCCGUGCAAAAAUGCAGGGGUCUAAAACUGAGCGGAUAACCUCUCUAUGG RNA 2: GGGAAUGGAUCCACAUCUACGAAUUCGGCCCAUAGAGAGGUUAUCCGCUCAUCAAGAUCGGAAGAGCACACGU | 17.1 ± 3.7
target 1 MT 5'PFS UGA 3'PFS CCG (mixed) RNA 1: CACCCGUGCAAAAAUGCAGGGGUCUAAAACUGAGCGGAUAACCUCUCUAUGG RNA 2: GGGAAUGGAUCCACAUCUACGAAUUCUGACCAUAGAGAGGUUAUCCGCUCACCGAGAUCGGAAGAGCACACGU | ~42.5
target 1 MT 5'PFS GUU 3'PFS AUG (mixed) RNA 1: CACCCGUGCAAAAAUGCAGGGGUCUAAAACUGAGCGGAUAACCUCUCUAUGG RNA 2: GGGAAUGGAUCCACAUCUACGAAUUCGUUCCAUAGAGAGGUUAUCCGCUCAAUGAGAUCGGAAGAGCACACGU | 56 ± 9
target 1 MT 5'PFS CUG 3'PFS CUA (mixed) RNA 1: CACCCGUGCAAAAAUGCAGGGGUCUAAAACUGAGCGGAUAACCUCUCUAUGG RNA 2: GGGAAUGGAUCCACAUCUACGAAUUCCUGCCAUAGAGAGGUUAUCCGCUCACUAAGAUCGGAAGAGCACACGU | 5.8 ± 1.9
target 1 MT 5'PFS ACG 3'PFS UUG (mixed) RNA 1: CACCCGUGCAAAAAUGCAGGGGUCUAAAACUGAGCGGAUAACCUCUCUAUGG RNA 2: GGGAAUGGAUCCACAUCUACGAAUUCACGCCAUAGAGAGGUUAUCCGCUCAUUGAGAUCGGAAGAGCACACGU | 7.45 ± 1
target 1 MT 5'PFS GUU 3'PFS UUA (mixed) RNA 1: CACCCGUGCAAAAAUGCAGGGGUCUAAAACUGAGCGGAUAACCUCUCUAUGG RNA 2: GGGAAUGGAUCCACAUCUACGAAUUCGUUCCAUAGAGAGGUUAUCCGCUCAUUAAGAUCGGAAGAGCACACGU | 13.1 ± 2.5
target 1 MT 5'PFS CUG 3'PFS CUC (mixed) RNA 1: CACCCGUGCAAAAAUGCAGGGGUCUAAAACUGAGCGGAUAACCUCUCUAUGG RNA 2: GGGAAUGGAUCCACAUCUACGAAUUCCUGCCAUAGAGAGGUUAUCCGCUCACUCAGAUCGGAAGAGCACACGU | 4.15 ± 1.5
target 1 MT 5'PFS GUU 3'PFS AUA (mixed) RNA 1: CACCCGUGCAAAAAUGCAGGGGUCUAAAACUGAGCGGAUAACCUCUCUAUGG RNA 2: GGGAAUGGAUCCACAUCUACGAAUUCGUUCCAUAGAGAGGUUAUCCGCUCAAUAAGAUCGGAAGAGCACACGU | 22 ± 5.5
target 1 MT 5'PFS UAA 3'PFS CUU (mixed) RNA 1: CACCCGUGCAAAAAUGCAGGGGUCUAAAACUGAGCGGAUAACCUCUCUAUGG RNA 2: GGGAAUGGAUCCACAUCUACGAAUUCUAACCAUAGAGAGGUUAUCCGCUCACUUAGAUCGGAAGAGCACACGU | 48 ± 19
target 1 MT 5'PFS UAC 3'PFS ACU (mixed) RNA 1: CACCCGUGCAAAAAUGCAGGGGUCUAAAACUGAGCGGAUAACCUCUCUAUGG RNA 2: GGGAAUGGAUCCACAUCUACGAAUUCUACCCAUAGAGAGGUUAUCCGCUCAACUAGAUCGGAAGAGCACACGU | 11.2 ± 3.5
target 1 MT 5'PFS GUU 3'PFS UUG (mixed) RNA 1: CACCCGUGCAAAAAUGCAGGGGUCUAAAACUGAGCGGAUAACCUCUCUAUGG RNA 2: GGGAAUGGAUCCACAUCUACGAAUUCGUUCCAUAGAGAGGUUAUCCGCUCAUUGAGAUCGGAAGAGCACACGU | 11.1 ± 1.05
target 1 MT 5'PFS ACG 3'PFS UUC (mixed) RNA 1: CACCCGUGCAAAAAUGCAGGGGUCUAAAACUGAGCGGAUAACCUCUCUAUGG RNA 2: GGGAAUGGAUCCACAUCUACGAAUUCACGCCAUAGAGAGGUUAUCCGCUCAUUCAGAUCGGAAGAGCACACGU | 19.5 ± 8
target 1 insU 3' of 22,insG 3' of 16 (mixed) RNA 1: CACCCGUGCAAAAAUGCAGGGGUCUAAAACUGAGCGGAUAACCUCUCUAUGG RNA 2: GGGAAUGGAUCCACAUCUACGAAUUCGUACUCAUAGAGGAGGUUAUCCGCUCACCGAGAUCGGAAGAGCACACGU | 48 ± 16
target 1 MT 5'PFS GGG 3'PFS GAG (mixed) RNA 1: CACCCGUGCAAAAAUGCAGGGGUCUAAAACUGAGCGGAUAACCUCUCUAUGG RNA 2: GGGAAUGGAUCCACAUCUACGAAUUCGGGCCAUAGAGAGGUUAUCCGCUCAGAGAGAUCGGAAGAGCACACGU | 20.5 ± 5.5
target 1 MT 5'PFS GUU 3'PFS AUC (mixed) RNA 1: CACCCGUGCAAAAAUGCAGGGGUCUAAAACUGAGCGGAUAACCUCUCUAUGG RNA 2: GGGAAUGGAUCCACAUCUACGAAUUCGUUCCAUAGAGAGGUUAUCCGCUCAAUCAGAUCGGAAGAGCACACGU | 19.3 ± 3.55
target 1 MT 5'PFS CUU 3'PFS UAU (mixed) RNA 1: CACCCGUGCAAAAAUGCAGGGGUCUAAAACUGAGCGGAUAACCUCUCUAUGG RNA 2: GGGAAUGGAUCCACAUCUACGAAUUCCUUCCAUAGAGAGGUUAUCCGCUCAUAUAGAUCGGAAGAGCACACGU | 56 ± 24
target 1 MT 5'PFS GGC 3'PFS UCG (mixed) RNA 1: CACCCGUGCAAAAAUGCAGGGGUCUAAAACUGAGCGGAUAACCUCUCUAUGG RNA 2: GGGAAUGGAUCCACAUCUACGAAUUCGGCCCAUAGAGAGGUUAUCCGCUCAUCGAGAUCGGAAGAGCACACGU | 11.1 ± 1.15
target 1 insC 3' of 14,insC 3' of 9 (mixed) RNA 1: CACCCGUGCAAAAAUGCAGGGGUCUAAAACUGAGCGGAUAACCUCUCUAUGG RNA 2: GGGAAUGGAUCCACAUCUACGAAUUCGUACCAUAGAGACGGUUACUCCGCUCACCGAGAUCGGAAGAGCACACGU | 42 ± 11
target 1 MT 5'PFS ACG 3'PFS UUA (mixed) RNA 1: CACCCGUGCAAAAAUGCAGGGGUCUAAAACUGAGCGGAUAACCUCUCUAUGG RNA 2: GGGAAUGGAUCCACAUCUACGAAUUCACGCCAUAGAGAGGUUAUCCGCUCAUUAAGAUCGGAAGAGCACACGU | 6.9 ± 1.3

Reference: paper PMC10786891, “Massively parallel profiling of RNA-targeting CRISPR-Cas13d”
